Test results as given in patent US11708423B2, “Chimeric engulfment receptor molecules and methods of use” (CERO THERAPEUTICS, INC., priority 2017, dated 2023).

Columns and labels:
Format in all cases: cell-based
[1] = system: A549 cells introduced with an ELM4-ALK translocation; assay: Interferon Gamma secretion, A549 ALK+ co-culture; conditions: Crizotinib (3700 nM) or Alectinib (3700 nM), 18 hours, E:T 2:1 and 5:1
Experimental: After 18 hours of co-culture, bulk supernatants were evaluated for Interferon Gamma secretion (FIGS. 66A-B). Assays were performed using purified, tEGFR^+ (transduction marker), CER-expressing T cells 7 days after activation using CD3 & CD28 microbeads at effector: target ratios of (2:1 & 5:1). Control “Mock” T cells were transduced with vector alone.

[2] = system: H1975 lung adenocarcinoma cells; assay: MTT viability of H1975 cells co-cultured with CER T cells and Osimeritinib
Text: H1975 lung adenocarcinoma cells harboring an EGFR mutation were co-cultured with CER123- or CER126-modified or Mock-transduced (vector only) CD4+ T cells with increasing concentrations of Osimeritinib. CER123 has a polypeptide sequence as set forth in SEQ ID NO:150 and comprises a Tim4 binding domain, Tim4 transmembrane domain, and an engulfment signaling domain comprising a primary engulfment signaling domain comprising a TLR2 signaling domain and a secondary engulfment signaling domain comprising a TRAF6 signaling domain. CER126 has a polypeptide sequence as set forth in SEQ ID NO:174 and comprises a Tim4 binding domain, Tim4 transmembrane domain, and an engulfment signaling domain comprising a primary engulfment signaling domain comprising a TLR2 signaling domain and a secondary engulfment signaling domain comprising a TRAF2 signaling domain. CD4 T cells were transduced with a lentiviral vector comprising CER123 or CER126 nucleic acid and truncated EGFR (transduction marker) nucleic acid. Assays were performed using CER modified T cells purified by FACS using an EGFR specific antibody 7 days after activation using CD3 & CD28 microbeads. CER modified T cells and H1975 cells were co-cultured at effector:target cell ratio (E:T) of 1:1, 2:1, or 5:1. After 48 hours of co-culture in the presence of Osimeritinib (0, 250 nM, 500 nM, or 1000 nM), T cells were washed away, and the number of viable H1975 cells were quantified using a calorimetric MTT assay. Cell viability experiments were performed in triplicate and presented as % of control (FIG. 45A).

ALK+A549 cells = assay: Phagocytosis of ALK inhibitor treated A549 ALK+ cells by CER T cells (fluorescent microscopy); conditions: 2.5 μM Alectinib, 12 hours
Text: An ELM4-ALK translocation was introduced into A549 cells. […] CD4 T cells are modified to express CER104 or CER117 and labeled with CELLTRACE Violet. CER117 has a polypeptide sequence set forth in SEQ ID NO:144 and comprises a Tim4 binding domain, a Tim4 transmembrane domain, and an engulfment signaling domain comprising a primary engulfment signaling domain comprising a TLR8 signaling domain and a secondary engulfment signaling domain comprising a TRAF6 signaling domain. The ALK+A549 cells were then co-cultured with CER104- or CER117-expressing CD4+ T cells or Mock-transduced (vector only) T cells for 12 hours and images were obtained by fluorescent microscopy at 40× magnification (FIGS. 62A-E). White arrows indicate exemplary phagocytic events (pH rodo red cell targets within CELLTRACE Violet labeled CD4+ T cells).
CER123- and CER126-transduced CD4+ and CD8+ T cells were labeled with CELLTRACE Violet and co-cultured with the A549 ALK-positive cells. Co-cultured cells were imaged by fluorescent microscopy at 63× magnification after 12 hours (FIGS. 63A-F). White arrows indicate exemplary phagocytic events (pHrodo red targets within CELLTRACE Violet-labeled CD4 T cells).
Phagocytosis of Alectinib-treated ALK+A549 cells by CER-expressing T cells was also quantified. […] Bar graph in FIG. 64A represents quantification of percentage phagocytosis calculated as ((number of phagocytic target events)/(total number of effector cells))*100. Events were calculated from fluorescent 3×3 stitched images at 40×resolution after 12 hours of co-culture. Bar graph in FIG. 64B represents quantification of adjusted phagocytic index calculated as (median area ratio of target events in effector cells*phagocytosis). Events calculated from fluorescent 3×3 stitched images at 40×resolution after 12 hours of co-culture.
CER21−, CER27−, CER30−, CER108−, CER110−, CER112−, CER120−, CER123−, CER124−, CER126−, CER127−, or CER104-transduced CD4+ T cells were co-cultured with Alectinib-treated A549 cells at a 1:1 ratio for 12 hours. Phagocytic events were calculated from 3×3 stitched fluorescent microscopy images at 40X resolution. […] Images were obtained after 12 hours of co-culture. Yellow triangles indicate exemplary phagocytic events (pHrodo red targets within CELLTRACE violet labeled CD4+ T cells).
A time course study of phagocytic uptake of tumor cells by CER-transduced T cells was performed. CD4+ T cells were transduced with a lentiviral vector comprising CER122 nucleic acid. Mock-transduced (vector only) CD4+ T cells were used as control. CER122-transduced T cells were labeled with CELLTRACE violet and co-cultured with pHrodo red labeled A549 ALK+ lung adenocarcinoma cells. Fluorescent microscopy images were obtained at 4, 8, and 16 hours co-culture (FIG. 72C), and % phagocytosis (FIG. 72A) and phagocytic index (FIG. 72B) were calculated.

A549 ALK+ cells = assay: MTT viability and bright field microscopy of A549 ALK+ cells with CER T cells and ALK inhibitor; conditions: Alectinib 3.7 μM, 48 hours, vs mock-transduced T cells
Text: An […] translocation was introduced into A549 cells. […] CER104 has a polypeptide sequence set forth in SEQ ID NO:133 and comprises a Tim4 binding domain, Tim4 transmembrane domain, and an engulfment signaling domain comprising a primary engulfment signaling domain comprising a TLR8 signaling domain and a secondary engulfment signaling domain comprising a DAP12 signaling domain. CER122 has a polypeptide sequence set forth in SEQ ID NO:149 and comprises a Tim4 binding domain, Tim4 transmembrane domain, and an engulfment signaling domain comprising a primary engulfment signaling domain comprising a TLR2 signaling domain and a secondary engulfment signaling domain comprising a DAP12 signaling domain. Effector:target (E:T) cell ratio for co-culture was 2:1 or 5:1. […] Cell viability experiments were performed in triplicates and presented as % of control. Best-fit curves were generated from raw data using linear regression models.
CER21−, CER108−, CER104−, and CER129-transduced CD4+ T cells were tested for their ability to kill A549 ALK+ cells in the presence of ALK inhibitor. CD4+ T cells were transduced with a lentiviral vector comprising a CER21, CER108, CER104, CER129, CER27, CER120, CER122, CER123, CER124, or CER126 nucleic acid. […] After 48 hours of co-culture, T cells were washed away and the number of viable A549 ALK+ cells was quantified using a calorimetric MTT assay (FIGS. 67A-B). Cell viability experiments were performed in triplicates and presented as % of control. Bright field microscopy images were also obtained from A549 ALK+co-culture experiments. […] Arrow indicates cluster of dead A549 ALK+ cells surrounded by phagocytic CER104+ T cells. […]

B1: CER126: Tim4 binding and transmembrane domains, TLR2 primary and TRAF2 secondary signaling domains; SEQ ID NO:174 (protein)
chain: MSKGLLLLWLVTELWWLYLTPAASEDTIIGFLGQPVTLPCHYLSWSQSRNSMCWGKGSCPNSKCNAELLRTDGTRIISRKSTKYTLLGKVQFGEVSLTISNTNRGDSGVYCCRIEVPGWFNDVKKNVRLELRRATTTKKPTTTTRPTTTPYVTTTTPELLPTTVMTTSVLPTTTPPQTLATTAFSTAVTTCPSTTPGSFSQETTKGSAFTTESETLPASNHSQRSMMTISTDIAVLRPTGSNPGILPSTSQLTTQKTTLTTSESLQKTTKSHQINSRQTILIIACCVGFVLMVLLFLAFLHRFHGLWYMKMMWAWLQAKRKPRKAPSRNICYDAFVSYSERDAYWVENLMVQELENFNPPFKLCLHKRDFIPGKWIIDNIIDSIEKSHKTVFVLSENFVKSEWCKYELDFSHFRLFDENNDAAILILLEPIEKKAIPQRFCKLRKIMNTKTYLEWPMDEAQREGFWVNLRAAIKSMAAASVTPPGSLELLQPGFSKTLLGTKLEAKYLCSACRNVLRRPFQAQCGHRYCSFCLASILSSGPQNCAACVHEGIYEEGISILESSSAFPDNAARREVESLPAVCPSDGCTWKGTLKEYESCHEGRCPLMLTECPACKGLVRLGEKERHLEHECPERSLSCRHCRAPCCGADVKAHHEVCPKFPLTCDGCGKKKIPREKFQDHVKTCGKCRVPCRFHAIGCLETVEGEKQQEHEVQWLREHLAMLLSSVLEAKPLLGDQSHAGSELLQRCESLEKKTATFENIVCVLNREVERVAMTAEAC
modifications: CER126 protein
Interferon Gamma secretion [1]: dose-dependent inducible cytokine secretion | bright field images of H1975 co-culture ([2]; Osimeritinib 500 nM, vs control T cells (vector alone)): loss of H1975 cells | growth/viability of H1975 cells (MTT) ([2]; Osimeritinib 250, 500, 1000 nM, CD4+ T cells, E:T 1:1, 2:1, 5:1, 48 hours): synergistically suppressed | phagocytic elimination of ALK+A549 cells (ALK+A549 cells): phagocytic elimination of ALK+A549 cells | bright field microscopy of A549 ALK+ co-culture (A549 ALK+ cells): cluster of dead A549 ALK+ cells surrounded by phagocytic CER126^+ T cells
